B1: Photozipper (PZ), N-terminally truncated aureochrome-1 of Vaucheria frigida, wild type [Vaucheria frigida] / itself (parent)
chain: GSISSELTEAQKVERRERNREHAKRSRVRKKFLLESLQQSVNELNHENNSLKESIREHLGPRGDSLIAQSSPEADTLLTDNPSKANRILEDPDYSLVKALQMAQQNFVITDASLPDNPIVYASRGFLTLTGYSLDQILGRNCRFLQGPETDPRAVDKIRNAITKGVDTSVCLLNYRQDGTTFWNLFFVAGLRDSKGNIVNYVGVQSKVSEDYAKLLVNEQNIEYKGVRTSNMLRRK

Variants of: B1
Experiment: DLS
Conditions: with itself

| hydrodynamic size (D (dark) state) [nm] | hydrodynamic size (L (light) state) [nm] | Variant |
| --- | --- | --- |
| 3.05 | 3.86 | GSISSELTEAQKVERRERNREHAKRSRVRKKFLLESLQQSVNELNHENNSLKESIREHLGPRGDSLIAQSSPEADTLLTDNPSKANRIAEDPDYSAVKAAQMAQQNFVITDASLPDNPIVYASRGFLTLTGYSLDQILGRNCRFLQGPETDPRAVDKIRNAITKGVDTSVCLLNYRQDGTTFWNLFFVAGLRDSKGNIVNYVGVQSKVSEDYAKLLVNEQNIEYKGVRTSNMLRRK [chain 1 L89A L96A L100A] |
| 3.18 | 3.88 | GSISSELTEAQKVERRERNREHAKRSRVRKKFLLESLQQSVNELNHENNSLKESIREHLGPRGDSLIAQSSPEADTLLTDNPSKANRILEDPDYSLVKAAQMAQQNFVITDASLPDNPIVYASRGFLTLTGYSLDQILGRNCRFLQGPETDPRAVDKIRNAITKGVDTSVCLLNYRQDGTTFWNLFFVAGLRDSKGNIVNYVGVQSKVSEDYAKLLVNEQNIEYKGVRTSNMLRRK [chain 1 L100A] |

— PMC8184817, “Transmission of light signals from the light-oxygen-voltage core via the hydrophobic region of the β-sheet surface in aureochrome-1” (Scientific Reports, 2021)
